Measurements reported in patent US20110086028A1.

Key:
[1] = target: endogenous cell-associated gp-340 on human cell lines (AGS, VK2E6E7, Endo1E6E7, Ect1E6E7, HEC1A, untransfected 293) and human vaginal and cervical tissue (human) (UniProt Q9UGM3); experiment: cell-based or functional assay
[2] = target: full length gp-340 (exon 1-54) expressed on the surface of 293 cells transfected with pDEST-DMBT1 (clone 1D4) (UniProt Q9UGM3); experiment: cell-based or functional assay
Sequence of full length gp-340 (exon 1-54) expressed on the surface of 293 cells transfected with pDEST-DMBT1 (clone 1D4) (Q9UGM3 20-2413 limits assumed, change not shown): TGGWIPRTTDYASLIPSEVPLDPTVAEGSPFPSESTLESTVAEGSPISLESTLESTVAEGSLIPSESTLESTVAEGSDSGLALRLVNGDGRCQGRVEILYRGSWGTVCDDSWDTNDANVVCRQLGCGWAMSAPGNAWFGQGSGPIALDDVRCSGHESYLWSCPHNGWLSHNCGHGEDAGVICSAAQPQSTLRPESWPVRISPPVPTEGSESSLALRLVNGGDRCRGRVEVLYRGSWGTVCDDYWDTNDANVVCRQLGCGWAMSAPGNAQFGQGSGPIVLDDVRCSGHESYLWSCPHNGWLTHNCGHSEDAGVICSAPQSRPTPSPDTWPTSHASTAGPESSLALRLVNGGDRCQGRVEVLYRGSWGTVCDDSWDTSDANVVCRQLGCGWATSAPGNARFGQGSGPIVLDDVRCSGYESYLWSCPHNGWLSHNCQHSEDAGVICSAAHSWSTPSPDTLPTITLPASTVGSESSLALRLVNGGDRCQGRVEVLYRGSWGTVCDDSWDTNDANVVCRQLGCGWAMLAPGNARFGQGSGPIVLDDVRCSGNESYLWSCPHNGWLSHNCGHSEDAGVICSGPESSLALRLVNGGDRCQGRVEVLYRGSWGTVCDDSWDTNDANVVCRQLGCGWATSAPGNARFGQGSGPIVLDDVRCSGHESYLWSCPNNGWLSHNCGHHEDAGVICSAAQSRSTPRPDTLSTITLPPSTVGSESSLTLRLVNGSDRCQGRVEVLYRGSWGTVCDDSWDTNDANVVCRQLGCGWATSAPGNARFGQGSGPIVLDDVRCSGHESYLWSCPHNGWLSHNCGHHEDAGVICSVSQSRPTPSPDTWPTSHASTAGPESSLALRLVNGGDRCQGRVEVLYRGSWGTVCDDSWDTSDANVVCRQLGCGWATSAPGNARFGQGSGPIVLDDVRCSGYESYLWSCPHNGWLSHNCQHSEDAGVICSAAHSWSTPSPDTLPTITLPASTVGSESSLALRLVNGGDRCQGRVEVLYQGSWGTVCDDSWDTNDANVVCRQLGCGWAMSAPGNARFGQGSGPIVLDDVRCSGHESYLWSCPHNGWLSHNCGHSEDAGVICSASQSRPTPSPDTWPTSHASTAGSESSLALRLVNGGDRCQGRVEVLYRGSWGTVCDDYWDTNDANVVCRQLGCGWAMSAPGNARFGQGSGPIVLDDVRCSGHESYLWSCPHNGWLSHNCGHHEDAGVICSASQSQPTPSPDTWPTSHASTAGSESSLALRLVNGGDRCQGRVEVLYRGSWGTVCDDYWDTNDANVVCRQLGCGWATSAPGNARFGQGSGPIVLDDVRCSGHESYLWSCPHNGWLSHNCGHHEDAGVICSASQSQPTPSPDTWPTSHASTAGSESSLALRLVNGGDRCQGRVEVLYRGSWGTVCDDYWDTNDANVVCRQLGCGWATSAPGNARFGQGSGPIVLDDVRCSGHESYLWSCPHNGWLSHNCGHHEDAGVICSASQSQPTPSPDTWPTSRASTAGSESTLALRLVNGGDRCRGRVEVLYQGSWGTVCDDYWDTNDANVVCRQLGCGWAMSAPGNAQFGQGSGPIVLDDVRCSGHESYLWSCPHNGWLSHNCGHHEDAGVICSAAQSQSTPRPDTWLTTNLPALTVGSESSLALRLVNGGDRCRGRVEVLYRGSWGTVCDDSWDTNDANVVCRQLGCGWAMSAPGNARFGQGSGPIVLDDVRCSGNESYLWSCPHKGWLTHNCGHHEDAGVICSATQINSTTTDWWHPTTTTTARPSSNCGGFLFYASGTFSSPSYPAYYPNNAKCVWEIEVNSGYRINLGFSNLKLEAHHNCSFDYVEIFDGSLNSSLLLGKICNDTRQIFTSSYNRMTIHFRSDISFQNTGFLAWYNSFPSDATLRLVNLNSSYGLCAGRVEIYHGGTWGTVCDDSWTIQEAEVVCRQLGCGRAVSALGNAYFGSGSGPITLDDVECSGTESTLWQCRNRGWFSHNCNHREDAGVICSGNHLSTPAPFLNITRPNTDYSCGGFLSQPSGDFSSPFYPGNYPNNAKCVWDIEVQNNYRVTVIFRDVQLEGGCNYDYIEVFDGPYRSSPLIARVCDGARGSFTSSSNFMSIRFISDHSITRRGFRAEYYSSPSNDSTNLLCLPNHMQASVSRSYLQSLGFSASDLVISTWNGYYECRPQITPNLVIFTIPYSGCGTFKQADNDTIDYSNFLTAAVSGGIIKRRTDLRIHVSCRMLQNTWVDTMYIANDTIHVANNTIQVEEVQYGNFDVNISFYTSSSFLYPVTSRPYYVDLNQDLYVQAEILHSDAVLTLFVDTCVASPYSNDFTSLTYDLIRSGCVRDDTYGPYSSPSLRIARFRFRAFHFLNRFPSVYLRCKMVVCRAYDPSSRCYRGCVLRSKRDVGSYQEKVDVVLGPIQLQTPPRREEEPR

Sequence of endogenous cell-associated gp-340 on human cell lines (AGS, VK2E6E7, Endo1E6E7, Ect1E6E7, HEC1A, untransfected 293) and human vaginal and cervical tissue (human) (Q9UGM3 20-2413): as the sequence (Q9UGM3 20-2413 limits assumed, change not shown) above

Substance: HIV-1 Env (gp120) of primary M-tropic strain BL2, on virus particles
- enhancement in viral infectivity (AGS cell trans-infection) [1]: 6 fold
- viral input at which cells were infected in 50% of the wells (AGS cell trans-infection) [1]: 0.08 IU
- TCID50 of added virus in trans-infection to PHA-blasts, gp-340 expressing 293 cells against non-exogenously expressing 293 cells [2]: 6 fold
- mean P24 in 6 wells, clone 1D4 without peptide 6284, 0.11 IU [2]: 184
- mean P24 in 6 wells, clone 1D4 without peptide 6284, 0.33 IU [2]: 239
- percentage of wells infected at 0.11 IU of HIV added (trans-infection, gp-340 expressing 293 cells) [2]: 50%
- percentage of wells infected at 0.33 IU of HIV added (trans-infection, gp-340 expressing 293 cells) [2]: 100%
